From paper PMC8748714 (2022)
No end group written: not given here.

T1: GLP-1R H212A (Homo sapiens)
T1 chain: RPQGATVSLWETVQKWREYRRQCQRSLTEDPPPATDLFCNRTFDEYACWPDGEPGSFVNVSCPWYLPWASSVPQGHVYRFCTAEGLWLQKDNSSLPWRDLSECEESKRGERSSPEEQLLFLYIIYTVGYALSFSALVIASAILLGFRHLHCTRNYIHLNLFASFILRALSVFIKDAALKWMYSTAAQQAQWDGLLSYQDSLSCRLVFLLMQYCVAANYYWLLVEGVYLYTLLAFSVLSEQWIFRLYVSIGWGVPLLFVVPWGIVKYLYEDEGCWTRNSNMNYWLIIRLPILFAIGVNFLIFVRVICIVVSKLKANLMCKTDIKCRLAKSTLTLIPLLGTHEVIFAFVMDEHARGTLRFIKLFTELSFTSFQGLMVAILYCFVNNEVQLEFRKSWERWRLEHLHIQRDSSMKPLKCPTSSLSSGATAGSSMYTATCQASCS

T2: GLP-1R S206A (Homo sapiens)
T2 chain: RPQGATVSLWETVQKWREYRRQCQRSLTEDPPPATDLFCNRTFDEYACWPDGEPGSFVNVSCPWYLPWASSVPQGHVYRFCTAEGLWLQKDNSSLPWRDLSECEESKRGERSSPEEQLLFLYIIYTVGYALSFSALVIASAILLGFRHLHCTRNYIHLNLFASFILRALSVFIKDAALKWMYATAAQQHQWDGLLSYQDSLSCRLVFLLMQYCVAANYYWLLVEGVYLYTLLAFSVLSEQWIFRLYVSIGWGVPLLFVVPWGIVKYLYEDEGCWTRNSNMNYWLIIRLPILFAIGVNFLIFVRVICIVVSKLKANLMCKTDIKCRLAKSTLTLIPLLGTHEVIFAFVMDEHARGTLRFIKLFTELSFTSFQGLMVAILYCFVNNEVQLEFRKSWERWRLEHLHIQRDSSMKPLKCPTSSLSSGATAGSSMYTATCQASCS

T3: GLP-1R L141A (Homo sapiens)
T3 chain: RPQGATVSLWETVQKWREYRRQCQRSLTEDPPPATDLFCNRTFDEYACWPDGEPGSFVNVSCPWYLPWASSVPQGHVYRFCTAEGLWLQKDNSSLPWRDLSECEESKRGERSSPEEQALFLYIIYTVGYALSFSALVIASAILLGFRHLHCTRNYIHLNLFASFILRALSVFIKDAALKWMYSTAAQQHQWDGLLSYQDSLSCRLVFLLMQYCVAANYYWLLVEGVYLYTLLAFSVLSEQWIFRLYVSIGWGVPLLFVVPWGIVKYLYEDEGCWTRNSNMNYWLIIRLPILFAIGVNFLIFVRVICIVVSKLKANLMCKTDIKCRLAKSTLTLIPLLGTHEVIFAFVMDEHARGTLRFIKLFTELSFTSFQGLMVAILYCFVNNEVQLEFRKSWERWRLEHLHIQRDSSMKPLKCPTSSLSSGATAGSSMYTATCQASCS

T4: GLP-1R Y145A (Homo sapiens)
T4 chain: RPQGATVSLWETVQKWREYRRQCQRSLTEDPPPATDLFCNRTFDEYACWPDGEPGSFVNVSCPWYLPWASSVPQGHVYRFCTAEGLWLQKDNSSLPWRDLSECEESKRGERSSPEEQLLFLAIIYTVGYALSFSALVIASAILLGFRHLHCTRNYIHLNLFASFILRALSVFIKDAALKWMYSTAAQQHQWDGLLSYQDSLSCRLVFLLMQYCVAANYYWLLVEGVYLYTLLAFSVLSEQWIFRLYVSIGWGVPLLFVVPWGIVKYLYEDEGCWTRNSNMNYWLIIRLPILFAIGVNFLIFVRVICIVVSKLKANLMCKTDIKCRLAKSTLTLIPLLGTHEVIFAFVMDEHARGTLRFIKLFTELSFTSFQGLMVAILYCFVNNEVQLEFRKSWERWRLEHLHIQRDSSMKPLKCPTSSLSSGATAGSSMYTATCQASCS

T5: GLP-1R D198A (Homo sapiens)
T5 chain: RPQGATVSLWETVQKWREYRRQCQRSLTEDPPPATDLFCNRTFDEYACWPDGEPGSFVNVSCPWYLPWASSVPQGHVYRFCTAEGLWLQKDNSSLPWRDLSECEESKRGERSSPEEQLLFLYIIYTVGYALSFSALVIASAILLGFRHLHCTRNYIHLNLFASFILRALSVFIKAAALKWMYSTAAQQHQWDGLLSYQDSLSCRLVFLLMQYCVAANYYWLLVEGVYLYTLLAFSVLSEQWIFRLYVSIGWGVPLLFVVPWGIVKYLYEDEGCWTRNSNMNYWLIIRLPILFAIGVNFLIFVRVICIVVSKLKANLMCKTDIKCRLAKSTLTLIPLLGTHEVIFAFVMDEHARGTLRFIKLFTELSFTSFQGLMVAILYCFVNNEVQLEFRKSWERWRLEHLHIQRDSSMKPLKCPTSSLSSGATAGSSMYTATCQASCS

T6: GLP-1R Y205A (Homo sapiens)
T6 chain: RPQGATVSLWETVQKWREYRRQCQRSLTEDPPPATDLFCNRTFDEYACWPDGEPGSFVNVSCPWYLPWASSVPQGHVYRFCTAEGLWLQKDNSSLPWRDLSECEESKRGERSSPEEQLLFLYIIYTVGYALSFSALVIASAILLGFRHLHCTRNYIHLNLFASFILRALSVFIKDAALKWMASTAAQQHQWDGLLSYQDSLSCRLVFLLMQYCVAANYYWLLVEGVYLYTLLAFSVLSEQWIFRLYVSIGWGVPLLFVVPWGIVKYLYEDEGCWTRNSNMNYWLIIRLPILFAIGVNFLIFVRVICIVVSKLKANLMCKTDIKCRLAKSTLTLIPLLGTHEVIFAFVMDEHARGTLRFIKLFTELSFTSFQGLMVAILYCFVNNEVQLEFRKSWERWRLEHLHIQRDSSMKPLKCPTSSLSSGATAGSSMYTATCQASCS


Legend:
[1] = target: T1, GLP-1R H212A
[2] = target: T2, GLP-1R S206A
[3] = target: T3, GLP-1R L141A
[4] = target: T4, GLP-1R Y145A
[5] = target: T5, GLP-1R D198A
[6] = target: T6, GLP-1R Y205A

Row | IC50 [1] [nM] | IC50 [2] [nM] | IC50 [3] [nM] | IC50 [4] [nM] | IC50 [5] [nM] | IC50 [6] [nM] | Binder
1 | 12.9 | 16.6 | 603 | 24.5 | 708 | 36.3 | HSQGTFTSDYSKYLDSRRAQDFVQWLMNTKRNRNNIA [oxyntomodulin]
2 | 1.23 | 4.9 | 14.1 | 6.17 | 155 | 3.09 | HAEGTFTSDVSSYLEGQAAKEFIAWLVKGR (not fully specified (C-terminus)) [glucagon-like peptide-1]
